Assay results published in patent publication US5783681, “Androgen regulation with DNA sequences of rat probasin gene” (University of Manitoba).

Legend:
[1] = target: androgen receptor V865M V865M (Homo sapiens) (UniProt P10275); experiment: cell_activity; details: 10 nM DHT; background 4.2
[2] = target: T1, glucocorticoid receptor (GR) (Rattus norvegicus) (UniProt P06536); experiment: cell_activity; details: DEX, CAT reporter
T1 sequence: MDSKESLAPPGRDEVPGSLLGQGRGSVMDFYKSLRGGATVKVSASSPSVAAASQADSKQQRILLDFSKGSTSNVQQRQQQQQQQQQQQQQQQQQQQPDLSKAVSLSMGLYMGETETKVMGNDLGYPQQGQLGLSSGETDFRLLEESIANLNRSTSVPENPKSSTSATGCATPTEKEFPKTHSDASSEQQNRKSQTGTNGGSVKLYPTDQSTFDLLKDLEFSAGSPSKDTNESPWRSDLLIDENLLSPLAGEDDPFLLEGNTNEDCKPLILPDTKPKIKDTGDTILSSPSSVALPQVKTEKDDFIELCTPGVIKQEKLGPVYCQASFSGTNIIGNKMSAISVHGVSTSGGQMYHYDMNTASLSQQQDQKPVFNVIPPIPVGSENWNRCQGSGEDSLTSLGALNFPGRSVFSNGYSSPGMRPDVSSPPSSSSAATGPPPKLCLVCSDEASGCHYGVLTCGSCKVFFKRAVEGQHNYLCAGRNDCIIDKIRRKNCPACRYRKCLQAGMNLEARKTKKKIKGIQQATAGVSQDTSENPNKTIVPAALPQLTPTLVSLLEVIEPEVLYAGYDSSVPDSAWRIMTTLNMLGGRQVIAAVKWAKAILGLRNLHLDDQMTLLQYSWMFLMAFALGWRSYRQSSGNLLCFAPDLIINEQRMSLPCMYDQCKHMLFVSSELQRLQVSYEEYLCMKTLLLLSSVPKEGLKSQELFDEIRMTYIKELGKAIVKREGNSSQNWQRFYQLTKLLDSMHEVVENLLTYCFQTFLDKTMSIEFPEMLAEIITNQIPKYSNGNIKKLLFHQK

[3] = target: T2, androgen receptor (AR) (Rattus norvegicus) (UniProt P15207); experiment: cell_activity; details: DHT, CAT reporter
T2 sequence: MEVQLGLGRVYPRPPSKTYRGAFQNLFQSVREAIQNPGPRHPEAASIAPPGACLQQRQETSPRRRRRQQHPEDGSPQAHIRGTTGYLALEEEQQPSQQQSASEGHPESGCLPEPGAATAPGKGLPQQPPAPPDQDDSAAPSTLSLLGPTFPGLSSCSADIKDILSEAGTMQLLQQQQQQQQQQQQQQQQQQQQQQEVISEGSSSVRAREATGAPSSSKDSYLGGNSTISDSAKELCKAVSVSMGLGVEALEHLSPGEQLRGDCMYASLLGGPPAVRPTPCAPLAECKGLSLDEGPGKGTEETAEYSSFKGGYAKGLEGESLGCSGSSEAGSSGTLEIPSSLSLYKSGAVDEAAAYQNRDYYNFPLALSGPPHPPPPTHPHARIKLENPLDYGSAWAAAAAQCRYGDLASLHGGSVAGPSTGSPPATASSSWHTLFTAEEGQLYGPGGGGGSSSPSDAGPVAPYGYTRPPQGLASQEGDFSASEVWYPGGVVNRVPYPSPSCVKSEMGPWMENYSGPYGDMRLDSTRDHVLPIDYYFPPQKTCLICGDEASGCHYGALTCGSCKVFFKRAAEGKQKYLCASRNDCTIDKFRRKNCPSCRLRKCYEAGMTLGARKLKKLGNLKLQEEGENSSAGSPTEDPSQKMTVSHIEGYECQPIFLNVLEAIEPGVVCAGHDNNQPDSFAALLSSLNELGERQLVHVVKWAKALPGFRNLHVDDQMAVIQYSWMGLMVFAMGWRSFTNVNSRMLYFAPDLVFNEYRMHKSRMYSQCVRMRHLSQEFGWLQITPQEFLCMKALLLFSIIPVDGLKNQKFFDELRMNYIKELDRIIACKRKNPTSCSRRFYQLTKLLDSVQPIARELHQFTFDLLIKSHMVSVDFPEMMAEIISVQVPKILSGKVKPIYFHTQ

[4] = target: T3, androgen receptor (hAR) wild type (Homo sapiens) (UniProt P10275); experiment: cell_activity; details: 10 nM DHT; background 4.2
T3 sequence: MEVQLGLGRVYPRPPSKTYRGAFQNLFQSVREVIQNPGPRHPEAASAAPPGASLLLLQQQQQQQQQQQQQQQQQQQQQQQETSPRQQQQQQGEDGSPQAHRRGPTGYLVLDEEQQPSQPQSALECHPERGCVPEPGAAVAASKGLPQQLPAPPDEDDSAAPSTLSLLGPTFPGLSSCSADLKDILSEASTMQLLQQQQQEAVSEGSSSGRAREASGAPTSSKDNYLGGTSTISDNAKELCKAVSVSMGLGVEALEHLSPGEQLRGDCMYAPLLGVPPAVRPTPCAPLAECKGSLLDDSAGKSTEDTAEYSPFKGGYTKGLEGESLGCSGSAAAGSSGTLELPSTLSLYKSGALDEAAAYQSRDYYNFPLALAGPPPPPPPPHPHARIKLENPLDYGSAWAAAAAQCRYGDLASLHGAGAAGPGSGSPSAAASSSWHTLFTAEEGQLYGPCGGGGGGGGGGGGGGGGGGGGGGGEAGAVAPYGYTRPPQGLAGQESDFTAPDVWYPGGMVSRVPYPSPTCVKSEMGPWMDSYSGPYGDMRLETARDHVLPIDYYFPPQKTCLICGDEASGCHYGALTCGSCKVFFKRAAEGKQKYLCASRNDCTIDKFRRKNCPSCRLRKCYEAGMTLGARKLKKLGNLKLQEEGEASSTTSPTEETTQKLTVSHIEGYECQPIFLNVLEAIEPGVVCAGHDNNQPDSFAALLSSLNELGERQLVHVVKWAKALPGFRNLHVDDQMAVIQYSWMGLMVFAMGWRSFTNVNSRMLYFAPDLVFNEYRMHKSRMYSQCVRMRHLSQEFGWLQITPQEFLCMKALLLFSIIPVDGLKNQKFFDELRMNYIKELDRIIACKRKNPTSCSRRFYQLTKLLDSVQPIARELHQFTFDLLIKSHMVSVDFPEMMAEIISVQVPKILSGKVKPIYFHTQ

[5] = target: T4, androgen receptor V865L V865L (Homo sapiens) (UniProt P10275); experiment: cell_activity; details: 10 nM DHT; background 4.2
T4 sequence: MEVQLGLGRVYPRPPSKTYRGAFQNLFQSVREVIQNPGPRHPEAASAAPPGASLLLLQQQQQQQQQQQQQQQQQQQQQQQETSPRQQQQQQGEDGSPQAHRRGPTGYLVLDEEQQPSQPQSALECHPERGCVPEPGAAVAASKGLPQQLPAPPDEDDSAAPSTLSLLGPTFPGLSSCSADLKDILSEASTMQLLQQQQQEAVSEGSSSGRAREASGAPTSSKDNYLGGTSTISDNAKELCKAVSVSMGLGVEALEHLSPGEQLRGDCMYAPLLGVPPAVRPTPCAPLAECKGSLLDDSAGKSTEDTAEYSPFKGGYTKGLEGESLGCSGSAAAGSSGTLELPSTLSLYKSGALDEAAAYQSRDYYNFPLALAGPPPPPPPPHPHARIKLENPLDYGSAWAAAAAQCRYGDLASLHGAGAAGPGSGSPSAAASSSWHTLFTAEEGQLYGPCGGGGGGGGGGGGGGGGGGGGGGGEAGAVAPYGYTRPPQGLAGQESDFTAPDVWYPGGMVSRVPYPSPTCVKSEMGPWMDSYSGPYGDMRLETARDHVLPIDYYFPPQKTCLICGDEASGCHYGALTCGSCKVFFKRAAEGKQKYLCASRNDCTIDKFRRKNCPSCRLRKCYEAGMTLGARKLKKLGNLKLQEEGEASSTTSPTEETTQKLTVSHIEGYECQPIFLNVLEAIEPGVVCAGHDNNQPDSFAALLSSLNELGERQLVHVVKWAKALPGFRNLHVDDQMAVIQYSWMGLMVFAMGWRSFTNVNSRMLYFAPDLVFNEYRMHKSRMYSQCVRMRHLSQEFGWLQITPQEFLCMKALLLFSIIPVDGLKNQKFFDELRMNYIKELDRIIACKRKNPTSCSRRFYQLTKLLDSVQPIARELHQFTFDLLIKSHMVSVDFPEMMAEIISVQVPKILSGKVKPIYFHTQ

[6] = target: T5, glucocorticoid receptor (GR) (Rattus norvegicus, UniProt P06536 P06536:1-795); experiment: cell_activity; DEX, CAT reporter; details: chain copies: 2
Procedure: (§1) Cells which had undergone transient transfection were harvested in phosphate buffered saline containing 1 mM EDTA. After centrifugation at 2000×g for 4 min at room temperature, cells were lysed in 0.1M Tris-HCl/0.1% Triton X-100, pH 7.8 for 15 min on ice. Insoluble material was removed by centrifugation at 14,500×g, 15 minutes, at 4° C. The CAT activity in the cell extract was determined by a two-phase fluor diffusion assay (Nachtigal et al., 1989). Also, the DNA was isolated from the insoluble material and 2 µg samples were placed in duplicate on nitrocellulose membrane via slot-blot apparatus and probed with ^32P-labelled CAT insert DNA. Autoradiograms were analyzed by densitometry and all CAT activity data was normalized for transfection efficiency. For transgenic mice, a total cellular extract of each tissue was assayed for CAT activity.
(§2) Due to the lack of appropriate cell lines containing either androgen receptors and/or prostatic in origin, a range of cell lines was tested. The human prostatic cells LNCaP would express and androgen regulate PB-CAT-while HeLa, prostatic DU-145 and PC-3 cells required co-transfection of an androgen receptor expression vector for androgen regulation. […]

[7] = target: T6, androgen receptor (AR) (Rattus norvegicus, UniProt P15207 P15207:1-902); experiment: cell_activity; DHT, CAT reporter; details: chain copies: 2
Procedure: as §1, §2

[8] = target: T6, androgen receptor (AR); experiment: cell_activity; DHT, TK promoter CAT reporter; details: chain copies: 2
Procedure: as §1, §2

[9] = target: T5, glucocorticoid receptor (GR); experiment: cell_activity; DEX, TK promoter CAT reporter; details: chain copies: 2
Procedure: as §1, §2

Molecule: TAGTCATCATGTTTAAACATCTACCATTCCAGTTAAGAAAATATGATAGCATCTTGTTCTTAGTCTTTTTCTTAATAGGGACATAAAGCCCACAAATAAAAATATGCCTGAAGAATGGGACAGGCATTGGGCATTGTCCATGCCTAGTAAAGTACTCCAAGAACCTATTTGTATACTAGATGACACAATGTCAATGTCTGTGTACAACTGCCAACTGGGATGCAAGACACTGCCCATGCCAATCATCCTGAAAAGCAGCTATAAAAAGCAGGAAGCTACTCTGCACCTTGTCAGTGAGGTCCAGATACCTACAG (double strand) [probasin -286 to +28]
- activity (dpm/min/mg protein) [1]: 42

Molecule: ATGATAGCATCTTGTTCTTAGTCTTTTTCTTAATAGGGACATAAAGCCCACAAATAAAAATATGCCTGAAGAATGGGACAGGCATTGGGCATTGTCCATGCCTAGTAAAGTACTCCAAGAACCTATTTGTATACTAGATGACACAATGTCAATGTCTGTGTACAACTGCCAACTGGGATGCAAGACACTGCCCATGCCAATCATCCTGAAAAGCAGCTATAAAAAGCAGGAAGCTACTCTGCACCTTGTCAGTGAGGTCCAGATACCTACAG (double strand) [probasin -244 to +28]
- activity (fold induction) [2]: 9
- activity (fold induction) [3]: 49

Molecule: ATAGCATCTTGTTCTTAGTGGGCATTGTCCATGCCTAGTAAAGTACTCCAAGAACCTATTTGTATACTAGATGACACAATGTCAATGTCTGTGTACAACTGCCAACTGGGATGCAAGACACTGCCCATGCCAATCATCCTGAAAAGCAGCTATAAAAAGCAGGAAGCTACTCTGCACCTTGTCAGTGAGGTCCAGATACCTACAG (double strand) [ARE-1 adjacent to probasin -158 to +28]
- activity (fold induction) [2]: 21

Molecule: TAGTCATCATGTTTAAACATCTACCATTCCAGTTAAGAAAATATGATAGCATCTTGTTCTTAGTCTTTTTCTTAATAGGGACATAAAGCCCACAAATAAAAATATGCCTGAAGAATGGGACAGGCATTGGGCATTGTCCATGCCTAGTAAAGTACTCCAAGAACCTATTTGTATACTAGATGACACAATGTCAATGTCTGTGTACAACTGCCAACTGGGATGCAAGACACTGCCCATGCCAATCATCCTGAAAAGCAGCTATAAAAAGCAGGAAGCTACTCTGCACCTTGTCAGTGAGGTCCAGATACCTACAG (double strand) [probasin -286 to +28 ARE2*]
- activity (dpm/min/mg protein) [4]: 177
- activity (dpm/min/mg protein) [5]: 122
- activity (dpm/min/mg protein) [1]: 49

B1: probasin -158 to +28 (dsDNA)
DNA 1: GGGCATTGTCCATGCCTAGTAAAGTACTCCAAGAACCTATTTGTATACTAGATGACACAATGTCAATGTCTGTGTACAACTGCCAACTGGGATGCAAGACACTGCCCATGCCAATCATCCTGAAAAGCAGCTATAAAAAGCAGGAAGCTACTCTGCACCTTGTCAGTGAGGTCCAGATACCTACAG
DNA 2: CTGTAGGTATCTGGACCTCACTGACAAGGTGCAGAGTAGCTTCCTGCTTTTTATAGCTGCTTTTCAGGATGATTGGCATGGGCAGTGTCTTGCATCCCAGTTGGCAGTTGTACACAGACATTGACATTGTGTCATCTAGTATACAAATAGGTTCTTGGAGTACTTTACTAGGCATGGACAATGCCC
- activity [6]: 1.2 fold induction
- activity [7]: 1.4 fold induction

B2: probasin -244 to -96 (dsDNA)
DNA 1: ATGATAGCATCTTGTTCTTAGTCTTTTTCTTAATAGGGACATAAAGCCCACAAATAAAAATATGCCTGAAGAATGGGACAGGCATTGGGCATTGTCCATGCCTAGTAAAGTACTCCAAGAACCTATTTGTATACTAGATGACACAATGT
DNA 2: ACATTGTGTCATCTAGTATACAAATAGGTTCTTGGAGTACTTTACTAGGCATGGACAATGCCCAATGCCTGTCCCATTCTTCAGGCATATTTTTATTTGTGGGCTTTATGTCCCTATTAAGAAAAAGACTAAGAACAAGATGCTATCAT
- activity [8]: 61 fold induction
- activity [9]: 96 fold induction
